Reference: publication PMC4364741, “Recognition of Neisseria meningitidis by the Long Pentraxin PTX3 and Its Role as an Endogenous Adjuvant” (PLoS ONE, 2015)

B1: Genome-derived Neisserial antigen GNA1030 (natural protein)
chain: ATYKVDEYHANARFAIDHFNTSTNVGGFYGLTGSVEFDQAKRDGKIDITIPIANLQSGSQHFTDHLKSADIFDAAQYPDIRFVSTKFNFNGKKLVSVDGNLTMHGKTAPVKLKAEKFNCYQSPMEKTEVCGGDFSTTIDRTKWGMDYLVNVGMTKSVRIDIQIEAAKQ
B2: Genome-derived Neisserial antigen GNA2091 (natural protein, Neisseria meningitidis, UniProt Q9JXE1 1-202, looked up)
chain: CVSAVIGSAAVGAKSAVDRRTTGAQTDDNVMALRIETTARSYLRQNNQTKGYTPQISVVGYNRHLLLLGQVATEGEKQFVGQIARSEQAAEGVYNYITVASLPRTAGDIAGDTWNTSKVRATLLGISPATQARVKIVTYGNVTYVMGILTPEEQAQITQKVSTTVGVQKVITLYQNYVQR
notes: GNA2091, recombinant surface molecule of Neisseria meningitidis

Target: T1, Biotinylated human PTX3 (bPTX3) (human, UniProt P26022 18-381, biotin (sites not given))
T1 construct: Long pentraxin 3 (PTX3), human, as m1 but biotinylated; secreted by CHO cells and purified from the supernatant; Same protein as m1 with a biotin label; also called human bPTX3
Assay: ELISA; bPTX3 (0.56–17.92 pmol) on triplicate wells coated with 125 pmol/well of antigen; bound PTX3 from a standard curve of bPTX3; nonlinear fitting, one site binding curve; apparent
Conditions: both partners purified

T1 sequence (P26022 18-381): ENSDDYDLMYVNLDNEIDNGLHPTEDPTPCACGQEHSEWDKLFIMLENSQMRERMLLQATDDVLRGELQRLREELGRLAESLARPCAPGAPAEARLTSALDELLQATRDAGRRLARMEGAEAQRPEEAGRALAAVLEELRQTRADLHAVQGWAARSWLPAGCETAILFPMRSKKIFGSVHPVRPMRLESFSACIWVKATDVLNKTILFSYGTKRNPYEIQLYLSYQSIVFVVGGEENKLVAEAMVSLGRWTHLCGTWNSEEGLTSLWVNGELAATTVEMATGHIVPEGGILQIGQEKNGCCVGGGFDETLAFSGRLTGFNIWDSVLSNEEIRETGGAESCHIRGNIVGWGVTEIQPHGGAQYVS

| Binder | Kd |
| --- | --- |
| B1 | 37 nM |
| B2 | 4 nM |
